Target: GAPDH (Homo sapiens, UniProt P04406)
Test: ELISA

GAPDH, sequence (P04406 2-335): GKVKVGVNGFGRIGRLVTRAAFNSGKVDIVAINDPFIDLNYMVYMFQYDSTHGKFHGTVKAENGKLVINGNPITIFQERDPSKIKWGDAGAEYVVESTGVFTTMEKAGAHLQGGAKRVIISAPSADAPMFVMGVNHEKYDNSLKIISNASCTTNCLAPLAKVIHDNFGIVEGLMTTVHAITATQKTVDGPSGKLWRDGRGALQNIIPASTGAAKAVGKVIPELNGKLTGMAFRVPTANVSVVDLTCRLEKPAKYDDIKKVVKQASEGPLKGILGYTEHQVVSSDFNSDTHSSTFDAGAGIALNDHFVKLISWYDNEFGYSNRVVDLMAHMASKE

Kd: 96 µM
B1: TRAF2 (protein)
chain: AAASVTPPGSLELLQPGFSKTLLGTKLEAKYLCSACRNVLRRPFQAQCGHRYCSFCLASILSSGPQNCAACVHEGIYEEGISILESSSAFPDNAARREVESLPAVCPSDGCTWKGTLKEYESCHEGRCPLMLTECPACKGLVRLGEKERHLEHECPERSLSCRHCRAPCCGADVKAHHEVCPKFPLTCDGCGKKKIPREKFQDHVKTCGKCRVPCRFHAIGCLETVEGEKQQEHEVQWLREHLAMLLSSVLEAKPLLGDQSHAGSELLQRCESLEKKTATFENIVCVLNREVERVAMTAEACSRQHRLDQDKIEALSSKVQQLERSIGLKDLAMADLEQKVLEMEASTYDGVFIWKISDFARKRQEAVAGRIPAIFSPAFYTSRYGYKMCLRIYLNGDGTGRGTHLSLFFVVMKGPNDALLRWPFNQKVTLMLLDQNNREHVIDAFRPDVTSSSFQRPVNDMNIASGCPLFCPVSKMEAKNSYVRDDAIFIKAIVDLTGL
